As a reminder, the Kd is a measure of binding affinity in units of concentration. High values mean lower affinity, low ones higher affinity. Broadly, the koff is the first-order rate constant of dissociation. A low value points to slow dissociation. As usually defined, the kon is the rate constant with which the complex forms.

The target of this experiment is human LRP purified from placenta (human). As to the kind of experiment: SPR. Background: SPR reads the build-up and loss of mass on a sensor chip optically.

B1: hexa-His-tagged fragment of sorLA including the YWTD-repeated β-propeller, the single EGF-domain and the 11 CR-domains (residues 728-1526) (domain or fragment)
chain: YRKISGDTCSGGDVEARLEGELVPCPLAEENEFILYAVRKSIYRYDLASGATEQLPLTGLRAAVALDFDYEHNCLYWSDLALDVIQRLCLNGSTGQEVIINSGLETVEALAFEPLSQLLYWVDAGFKKIEVANPDGDFRLTIVNSSVLDRPRALVLVPQEGVMFWTDWGDLKPGIYRSNMDGSAAYHLVSEDVKWPNGISVDDQWIYWTDAYLECIERITFSGQQRSVILDNLPHPYAIAVFKNEIYWDDWSQLSIFRASKYSGSQMEILANQLTGLMDMKIFYKGKNTGSNACVPRPCSLLCLPKANNSRSCRCPEDVSSSVLPSGDLMCDCPQGYQLKNNTCVKQENTCLRNQYRCSNGNCINSIWWCDFDNDCGDMSDERNCPTTICDLDTQFRCQESGTCIPLSYKCDLEDDCGDNSDESHCEMHQCRSDEYNCSSGMCIRSSWVCDGDNDCRDWSDEANCTAIYHTCEASNFQCRNGHCIPQRWACDGDTDCQDGSDEDPVNCEKKCNGFRCPNGTCIPSSKHCDGLRDCSDGSDEQHCEPLCTHFMDFVCKNRQQCLFHSMVCDGIIQCRDGSDEDAAFAGCSQDPEFHKVCDEFGFQCQNGVCISLIWKCDGMDDCGDYSDEANCENPTEAPNCSRYFQFRCENGHCIPNRWKCDRENDCGDWSDEKDCGDSHILPFSTPGPSTCLPNYYRCSSGTCVMDTWVCDGYRDCADGSDEEACPLLANVTAASTPTQLGRCDRFEFECHQPKTCIPNWKRCDGHQDCQDGRDEANCPTHSTLTCMSREFQCEDGEA
B1 gave a Kd of 36.5 nM, a koff of 0.00015 s⁻¹ and a kon of 4110 M⁻¹ s⁻¹.

These data come from paper PMC2709796.
